Data published in patent publication US20090238823A1 (published 2009).
Changes are numbered by the printed parent chain.

T1: Cynomolgus TSLP (mammalian produced) (cynomolgus)
T1 construct: The Biacore construct is not specified beyond mammalian production; also called Cyno TSLP; cynomolgus TSLPwtpHF
T1 chain: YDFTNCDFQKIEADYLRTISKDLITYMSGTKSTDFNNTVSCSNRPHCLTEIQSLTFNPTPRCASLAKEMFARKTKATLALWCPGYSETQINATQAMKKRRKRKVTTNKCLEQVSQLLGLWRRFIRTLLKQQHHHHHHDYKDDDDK

T2: Murine TSLP (murine, UniProt Q9JIE6 20-140)
T2 construct: also called Mu TSLP
T2 sequence (looked up): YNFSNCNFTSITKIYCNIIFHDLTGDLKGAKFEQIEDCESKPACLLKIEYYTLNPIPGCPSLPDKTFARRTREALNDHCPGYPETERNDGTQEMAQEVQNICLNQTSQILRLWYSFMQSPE

B1: A2 IgG1 (antibody, V domains shown)
VH: EVQLVESGGVVVQPGGSLRLSCAASGFTFDDFTMHWVRQAPGKGLEWVSLISWDGGSTYYADSVKGRFTISRDNSKNSLYMQMNSLRTEDSALYYCARGPYYYFYGMDVWGQGTTVTVSS
VL: SSELTQDPAVSVALGQTVRITCQGDSLRTYYASWYQQKPGQAPILVISDKNNRPSGIPDRFSGSSSGNTASLTITGAQAEDEADYYCNSRDSSDNHLVVFGGGTKLTVL
notes: also called L2H2
B2: A2 IgG2 (antibody, V domains shown)
VH: B1 VH
VL: B1 VL
notes: also called L2H2
B3: A3 IgG4 (antibody, V domains shown)
VH: QVQLVQSGAEVKKPGASVKVSCKASGYTFTDYYMYWVRQAPGQGPEWMGWINPNSGGTNYVQKFQGRVTMTRDTSISTAYMELSRMRSDDTAVYYCARDGGSSGWPLFAYWGLGTLVTVSS
VL: QSVLTQPPSVSGAPGQRVTISCTGSSSNIGAGFDVHWYQQLPGTAPKLLIYDNNNRPSGVPDRFSGSKSGTSASLAITGLQAEDEADYYCQSYDSNLSGSIVVFGGGTKLTVL
notes: also called L3H3
B4: A4 IgG4 (antibody, V domains shown)
VH: QVQLVQSGAEVKKPGASVKVSCKASGYIFTGDYMHWVRQAPGQGLEWMGWINPNSGGTNHARKFQGRVTMTRDTSISTAYMELSRLRSDDTAVYYCVRDRGTSGWPLFDYWGQGTLVTVSS
VL: B3 VL with Q40L, Y51F
notes: also called L4H4
B5: A5 IgG2 (antibody, V domains shown)
VH: QMQLVESGGGVVQPGRSLRLSCAASGFTFRTYGMHWVRQAPGKGLEWVAVIWYDGSNKHYADSVKGRFTITRDNSKNTLNLQMNSLRAEDTAVYYCARAPQWELVHEAFDIWGQGTMVTVSS
VL: SYVLTQPPSVSVAPGQTARITCGGNNLGSKSVHWYQQKPGQAPVLVVYDDSDRPSWIPERFSGSNSGNTATLTISRGEAGDEADYYCQVWDSSSDHVVFGGGTKLTVL
notes: also called L5H5

Experiments:
[1] = target: T1, Cynomolgus TSLP (mammalian produced); test: SPR (Biacore 3000), antibody captured by anti-human Fc gamma, TSLP in solution, 25 C
Procedure: (§1) The surface plasmon resonance experiments described in this patent application were conducted at 25° C. using a Biacore 3000 instrument (Biacore International AB, Uppsala, Sweden) equipped with a CM4 sensor chip. Anti-Fcγ specific capture antibodies were covalently immobilized to two flow cells on the CM4 chip using standard amine-coupling chemistry with HBS-EP as the running buffer. Briefly, each flow cell was activated with a 1:1 (v/v) mixture of 0.1 M NHS and 0.4 M EDC. AffiniPure Goat Anti-Human IgG, Fcγ Fragment Specific antibody (Jackson ImmunoResearch Inc. West Grove, Pa.) at 30 ug/ml in 10 mM sodium acetate, pH 5.0 was immobilized with a target level of 3,000 RUs on two flow cells. Residual reactive surfaces were deactivated with an injection of 1 M ethanolamine. The running buffer was then switched to HBS-EP+0.1 mg/ml BSA for all remaining steps.
(§2) The following antibodies were tested. […] No antibody was captured on the control flow cell surface. Human, cyno, or murine TSLP at various concentrations, along with buffer blanks were then flown over the two flow cells. The concentration ranges for human and cyno TSLP were from 0.44-100 nM while the concentration range for murine TSLP was from 8.2-6000 nM. A flow rate of 50 ul/min was used and a 2 minute association phase followed by a 10-30 minute dissociation phase. After each cycle the surfaces were regenerated with a 30 second injection of 10 mM glycine pH 1.5. Fresh antibody was then captured on the test flow cell to prepare for the next cycle.

[2] = target: T3, Human TSLP (mammalian produced) (human, UniProt Q969D9 29-159); test: as above
T3 construct: also called Hu TSLP; huTSLPwtpHF
Procedure: as §1, §2

Murine TSLP [3] = target: T2, Murine TSLP; test: SPR (Biacore 3000), antibody captured by anti-human Fc gamma, TSLP in solution
Murine TSLP [4] = target: T2, Murine TSLP; test: SPR (Biacore 3000), antibody captured by anti-human Fc gamma, TSLP in solution, 25 C
Procedure: as §1, §2

Binder	Kd [1] [nM]	koff [1] [s⁻¹]	Kd [2] [nM]	koff [2] [s⁻¹]	binding result (Murine TSLP [3])	Kd (Murine TSLP [4]) [nM]
B1	0.0468	0.000104	0.203	0.000349		
B2	0.0376	9.42e-05	0.157	0.000285	no binding (tested: murine TSLP 8.2-6000 nM)	
B3			0.17	0.00027		
B4			0.34	0.00033		
B5	0.0512					377
